# Laboratory results published in publication doi:10.1101/2021.08.25.457676, “Binding of AP endonuclease-1 to G-quadruplex DNA depends on the N-terminal domain, Mg2+ and ionic strength”.
# Key:
# D210A-APE1 [1] = target: T1, D210A-APE1 (Homo sapiens, UniProt P27695 1-318, D210A); assay: fluorescence anisotropy; 140 mM K+; 20 mM Tris pH 7.4, 50 mM KOAc (or 140 mM K+ / 50 mM Li+), 0, 1 or 10 mM Mg(OAc)2, 1 mM DTT, 22 °C, 100 nM FAM-DNA, APE1 0-5000 nM; conditions: protein: recombinant; tags: His (pET28HIS-hAPE1); label: 5' FAM; intramolecular parallel G4 in K+; unfolded in Li+
# T1 sequence (P27695 whole entry D210A): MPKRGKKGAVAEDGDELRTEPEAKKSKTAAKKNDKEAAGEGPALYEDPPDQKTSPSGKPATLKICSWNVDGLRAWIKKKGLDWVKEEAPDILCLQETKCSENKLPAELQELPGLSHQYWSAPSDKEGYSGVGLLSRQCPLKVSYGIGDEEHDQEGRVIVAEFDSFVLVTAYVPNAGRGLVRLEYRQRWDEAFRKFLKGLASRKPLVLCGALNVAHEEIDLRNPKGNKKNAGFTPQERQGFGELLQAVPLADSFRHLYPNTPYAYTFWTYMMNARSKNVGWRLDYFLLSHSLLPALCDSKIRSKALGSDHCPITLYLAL
# Δ33-D210A-APE1 = Δ33-D210A-APE1 (Homo sapiens, UniProt P27695 34-318, D210A;del1-33); assay: fluorescence anisotropy; 10 mM Mg2+, 50 mM K+; 20 mM Tris pH 7.4, 50 mM KOAc (or 140 mM K+ / 50 mM Li+), 0, 1 or 10 mM Mg(OAc)2, 1 mM DTT, 22 °C, 100 nM FAM-DNA, APE1 0-5000 nM; conditions: protein: recombinant; tags: His (pET28HIS-hAPE1); label: 5' FAM; intramolecular parallel G4 in K+; unfolded in Li+
# Sequence of Δ33-D210A-APE1 (P27695 34-318 D210A): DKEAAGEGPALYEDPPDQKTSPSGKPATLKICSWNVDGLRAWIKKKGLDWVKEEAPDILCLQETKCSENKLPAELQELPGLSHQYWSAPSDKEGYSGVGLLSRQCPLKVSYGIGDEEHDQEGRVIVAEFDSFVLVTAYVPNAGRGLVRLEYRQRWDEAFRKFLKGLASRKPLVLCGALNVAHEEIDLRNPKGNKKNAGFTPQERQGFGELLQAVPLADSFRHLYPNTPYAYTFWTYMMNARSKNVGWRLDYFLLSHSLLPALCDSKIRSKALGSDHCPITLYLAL
# D210A-APE1 [2] = target: T1, D210A-APE1; assay: as above; conditions: protein: recombinant; tags: His (pET28HIS-hAPE1); label: 5' FAM; intramolecular parallel G4 in K+; unfolded in Li+
# APE1 (WT) = APE1 (WT) (Homo sapiens, UniProt P27695 1-318); assay: fluorescence anisotropy; 0 Mg2+, EDTA, 50 mM K+; 20 mM Tris pH 7.4, 50 mM KOAc (or 140 mM K+ / 50 mM Li+), 0, 1 or 10 mM Mg(OAc)2, 1 mM DTT, 22 °C, 100 nM FAM-DNA, APE1 0-5000 nM; conditions: protein: recombinant; tags: His (pET28HIS-hAPE1, Addgene 70757); label: 5' FAM; intramolecular parallel G4 in K+; unfolded in Li+
# Sequence of APE1 (WT) (P27695 whole entry): as the sequence (P27695 whole entry D210A) above, with A210D counted along it
binder,measurement,setting,value
CGGGGCGGGCCGGGGGCGGGGT (structured_DNA) [VEGF-4],Kd,D210A-APE1 [1],20 nM
same,Kd,Δ33-D210A-APE1,230 ± 40 nM
same,Kd,D210A-APE1 [2],55 ± 4 nM
same,Kd,APE1 (WT),190 ± 50 nM
